From the nanobody polyreactivity screen of Harvey et al. (2022)

Assay: yeast display, Sf9 membrane polyspecificity reagent, FACS + sequencing; frameworks hold sequencing errors
In short: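 Genes from sorted yeast were amplified by colony PCR, read by MiSeq 2 × 250 sequencing and filtered on CDR length. These cells carried a synthetic nanobody library in Saccharomyces cerevisiae BJ5465 and were sorted by FACS into low and high (top ~1%) gates on anti-HA and streptavidin fluorescence. Polyreactivity is labelled according to the gate of origin.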

QVQLVESGGGLVQAGGSLRLSCAASGRIFGNYAKGWYRQAPGKERELVAAISGGGSTYYADSVKGRFTISRDNAKNTVYLQMNSLKPEDTAVYYCAARFLSSVFGRKGGYWGQGTQVTVSS
polyreactivity (PSR sort gate): low polyreactivity

QVQLVESGGGLVQAGGSLRLSCAASGRIFRYYAKGWYRQAPGKERELVAAIRSASSTYYADSVKGRFTISRDNAKNTVYLQMNSLKPEDTAVYDCAAGLYGVYNRRYYYWGQGTQVTVSS
polyreactivity (PSR sort gate): high polyreactivity

QVQLVESGGGLVQAGGSLRLSCAASGFILPTYAMGWYRQAPGKEREFVAAIRTSTGATYYADSVKGRFTISRDIAKNTVYLQMTSLKPEDNAVYYFPADAPWSEWLWADIVGYEYWGQGTQVTVSS
polyreactivity (PSR sort gate): low polyreactivity

QVQLVESGGGLVQAGGSLRLSCAASGITFYSYAMGWYRQAPGKERELVAAISSSGTTYYADSVKGRFTISRDNAKNTVYLQMNSLKPEDTAVYYCATDYSLGWYQDSDGGYQFDYWGQGTQVTVSS
polyreactivity (PSR sort gate): high polyreactivity

QVQLVESGGGLVQAGGSLRLSCAASGFTFGWYAMGWYRQAPGKERELVAAIDESGGTTYYADSVKGRFTISRDNAKNTVYLQMNSLKPEDTAVYYCAADKKTPYEDDYWGQGTQVTVSS
polyreactivity (PSR sort gate): low polyreactivity

QVQLEESGGCLVQAGGSLRLSCAASGYIFTPYAKGWYRPAPGKEREFVAAITRSGGSTYYADSVKGRFTISRDYAKNTVYLQMNSLKPEDTAVYYCARYANYDKRYDYWGQGTQVTVSS
polyreactivity (PSR sort gate): high polyreactivity

QVQLVQSAGGLVQAGGSLRLSCAASGFTFVKYAMGWYRQAPGKERELLAVISRRGGSTYYADSVKGRFTISRDNAKNTVYLHMNSLKPEDTAVYYCAAVYYLYSAWRYDYWGQGTQVTVSS
polyreactivity (PSR sort gate): high polyreactivity

QVQLVESGGGLVQAGGSLRLSCAASGFTLAFYGMGRSRQAPGKERELVAAISRSGGSTYYADSVKGRFTISRDNAKNTVYLQMNSLKPEDTAVYYCAAAFRAGDVYGYYWGQGTQVTVSS
polyreactivity (PSR sort gate): high polyreactivity

QVQLVESGGGLVQAGGSLRLSCAASGRTFAWNAMGWYRQAPGKERELVAAISSRGTSTYYADSVKGRFTISRDNAKNTVYLQMNSLKPEDTAVYYCAKYTNPASGEYGYWGQGTQVTVSS
polyreactivity (PSR sort gate): high polyreactivity

QVQLVESGGGLLQAGGSLRLSCAASGRIFSTNAMGWYRQAPGKERELVAAITNGGNTNYADSVKGRFTISRDNAKITVYLQMNSLKQEDTAVYYCAKAVAYSWVDGYGYEYWGQGTQVTVSS
polyreactivity (PSR sort gate): low polyreactivity

QVQLVESGGGLVQAGGSLRLSCAASGFIFRGYAMGWYRQAPGKERELVAAISRSGGSTYYADSVKGRFTISRDNAKNTVYLQMNSLKPEDTAVYYCAARNSPGFPGDYWGQGTQVTVSS
polyreactivity (PSR sort gate): high polyreactivity

QVQLVESGGGIVQAGGSLRLSCAASGFIFHRNAMGWYRQAPGKERELVASITKRGGNTYYADSVKGRFTISRDTAKNTDFLQMTSLNPEDTGVYYCATQLWGWDWKRDYWGQATQVTVSS
polyreactivity (PSR sort gate): high polyreactivity

QVQLVESGGGLVQAGGSLRLSCAASGFILSGYAMGWYRQAPGKERELVAVISGGGRTYYADSVKGRFTISRDNAKNTVYLQMNSLKPEDTAVYYCARPRTRQGDYWGQGTQVTVSS
polyreactivity (PSR sort gate): high polyreactivity

QVQLVESGGGIVQAGGSLRLSCAASGYTYPRYTMGWYRQAPGKERELVAVIRRSGGTHYADSVKGRFTISRDNAKNTVYLHMNRLKPEETAVYYCAVVSFLPNIPYGYWGQGTQVTVSS
polyreactivity (PSR sort gate): high polyreactivity

QVQLVDSGPGLVQAGGSLRLSCAASGGTFQPNARGCYRQAPGKERELVAAISGSGDSTYYADSVKGRFTISRDNAKNTVYLQMNSLKPEDTAVYYCNAYFWFSRYAWGDTSYDYWGQGTQVTVSS
polyreactivity (PSR sort gate): low polyreactivity

QVQLVDSGGGLVQAGASLRLRCAASVLTLYANAMGRYRQAPGKERELVAGIDNGGSTSYADSVKGRFTISRDNAKKTVYLQKNSLKPEDTAVYYCAAQRDSVGGRHYAQRWIYLMYYWGQGTQVTVSS
polyreactivity (PSR sort gate): low polyreactivity

QVQLVESGGGLVQAGGSLRLSCAASVSTFPFYSMGWYRQAPGKERELVAAITSGGSTYADSVKGRFTISRDNAKNTVYLQMNSLKPEDTAVYYCAASWPRWWRFGYWGQGTQVTVSS
polyreactivity (PSR sort gate): low polyreactivity

QVQLVESGGGLVQAGGSLRLSCAASGRTFYSNAMGWYRQAPGKERELVAAISSSGTSTRYADSVKGRFTISRDNAKNTVYLQMNSLKPEDTAVYYCAAVGWYHDYYWGQGTQVTVSS
polyreactivity (PSR sort gate): high polyreactivity

QVQLVESGGGLVQAGGSLRLSCAASGRTFQYNAMGWYRQAPGKERELVAAISWSDGITYYADSVKGSFTISRDNAKNTVYLQMNSLKPEDTAVYYCAAEGYGLSYYFPYDFWGQGTQVTVSS
polyreactivity (PSR sort gate): high polyreactivity

QVQLVESGGGLVQAGGSLRLSCAASGSIFVGYTMGWYRQAPGKERELVAAITRRGGSTYYADSVKGRFTISRDNAKNTVYLQMNSLKPEDTAVYYCAAEVRRYVIVPYYYWGQGTQLTVSS
polyreactivity (PSR sort gate): high polyreactivity

QVQLVESGGGLVQAGGSLRLSCAASGSIYRDYTMGWYRQAPGKERELVAISWSSGGTNYADSVKGRFTISRDNAKNTVYLQMNSLKPEDTAVYYCAADRSTGLGDDDYWGQGTQVTVSS
polyreactivity (PSR sort gate): low polyreactivity

QVQLVESGGGLVQAGGSLRLRCAASGRTFWVNAMGCDRQAPGTERELVAGITFRGGSTDYADSVKGRFTISRDNAQNTVYLQMNRLKPEDTAVDDCAARVYRYGAMDYWGQGTQVTVSS
polyreactivity (PSR sort gate): high polyreactivity

QVQLVESGGGLVQAGGSLRLSCAASGFTFSTYAMGWYRQAPGKERECVAAISSGGTTNYADSVKGRFTISRDNAKNTVYLQMNSLKPEDSAVYYCAADWYRYYEYGAYGYWGQGTQVTLSS
polyreactivity (PSR sort gate): low polyreactivity

QVQLLESGGGLVQAGGSLRLSCAASGRIFLRYVMGWYRQAPGKERELVAAIRSNGGSTYADSVKGRFTSSRDNAKNTVYLHMNSLKPEDTAVYYCAARYVITKGSFVVGYGYWGQGTQVTVSS
polyreactivity (PSR sort gate): high polyreactivity

QVQLVESVGGLVQAGGSLRLSCAASGSNFRGYAMGWYRQAPGKERELVAAISWSGVSTYYADSVKGRFTISRDNAKNTVYLQMNSLKPEDTAVYDCAAGYSSAYLRFGYWGQGTQVTVSS
polyreactivity (PSR sort gate): low polyreactivity

QVQLVESGGGLVQAGGSLRLICAASGSIFSYYAMGWYIKAPGKERELVAVINSGGRTNYADSVKGRFTISRDNAKNTVYVQMNSLKPEDTAVYYCAAQCYFVERAGRYYRGEYWGQGTQVTVSS
polyreactivity (PSR sort gate): high polyreactivity

HVQLVESGGGLVQAGGSLRISCAASGRIFSTYTMGWYRQAPGKERELVAAIRANCGSTYYADSVKGRFTISRDNAKNTVYLQMNSLKPEDTAVYYCAALYRRYPYHYDSWGQGTQVTVSS
polyreactivity (PSR sort gate): high polyreactivity

QVQLVESGGGLVQAGGSLRLSCAASGSTFFFNAMGWYRQAPGKERELVAAITGSGGSTYYADSVKGRFTISRDNAKNTVYLQMNSLKPEDTAVYYCNASSPYDYDWGQGTQVTVSS
polyreactivity (PSR sort gate): low polyreactivity

QDQLGESGGGLVQAGGSLRLSCAASGFTFWWYAMGWYRQAPGKERELVAGITSGASTYYADSVKGRYTISRDNAKNTVYIQMNSLKPEDTAVYYCAADWLGWYQPYDYWGQGTQVTVSS
polyreactivity (PSR sort gate): low polyreactivity

QVQLVESGGGLVQAGGSLRLSCAASGYTFAGYAMGWYRQAPGKERELVAAISSSGGRTYYADSVKGRFTISRDNAKNTVDLQINSLKPEDTAVYYCAAYVWAYYVPYNYGYWGQGTQVTVSS
polyreactivity (PSR sort gate): high polyreactivity

QVQLVESGGGLVQAGGSLRLTCAASGRTFRLYVMGWYRQAPGKERELVASISYGGGRTYYADSVKGRFTISRDNAKNTVYLQMNSLKPEDTAVYYCAARYYTYRLDMDYWGQGTQVTVSS
polyreactivity (PSR sort gate): high polyreactivity

QVQLVESGGGLGQAGGSLRLICAASGIIFLYYAMGWYRQAPGKERELVAAITRSGGNTYYADSVKGRFTISRDNAKNTVYLQMNSLIPEDTAVYYCAARHNSVRGRGYGYDYWGQGTQVTVSS
polyreactivity (PSR sort gate): low polyreactivity

QLQLVESGGGLVQAGGSLRLSCAASGSTFPTNAMGWYRQAPGKEMELVATITTGGSTYYADSVKGRFTISRDNAKNTVYLQMNCLKPEDTAVYYCNAEYVYLIFSVYLYDYDYWGQGTQVTVSS
polyreactivity (PSR sort gate): low polyreactivity

QVQLVESGGGLVQAGGSLRLSSAASGSTFPDYDMGWYRQAPGKERELVAAITSSGGITYYADSVKGRFTISRDNAKNTVYLQMNSLKPEDTSVSYCAAYGYGSNYRYTGYYYWGQGTEVTVSS
polyreactivity (PSR sort gate): low polyreactivity

QVQRVESGGGLVQAGGSLRLSCPASGSTKFNAMGWNRQPPGKERELVATITANGDSTYYADSVKGRFTISRDNAKNTVYLQMNSLKPEDTAVYYCNADAYIRMDSWGQGTQVTVSS
polyreactivity (PSR sort gate): low polyreactivity

QVQLVESGGGLVQAGGSLRLSCAASGSTFLRNAMGWYRQAPGKERELVATISRTGGTTYYADSVKGRFSISRDNAKTTVYLQMNSLKPEDTAVYYCAAYSKYGQHYDYWGQGTQVTVSS
polyreactivity (PSR sort gate): high polyreactivity

QVQLVESGGGLVQAGGSLRLSCAASGIIFYRYAMGWYRQAPGKESELVAAITWSGVSTSYADSVKGRFTISRDNAKNTVYLQMNSLKPEDTAVYYCNKDPGTLYGDMDSWGQGTQVTVSS
polyreactivity (PSR sort gate): low polyreactivity

QVQLVESGGGLVQAGGSLRLSCAASGSILLEYAMGWYRQAPGKERELVAAISRGGTTNYADSVKGRFTISRDNAKNTVYLQMNSLKPEDTAVYYCAAGKIGRRGHQNRLDLDYWGQGTQVTVSS
polyreactivity (PSR sort gate): low polyreactivity

QVQLVESGGGLVQAGGSLRLSCAASGRTIRGYAMGWYRQAPGKEREFVASITWNSVSTSYADSVKGRFTISRDNAKNTVYLQMNSLKPEDTAVYYCNRRTGSYGRTPVGKGEYYYWGQGTQVTVSS
polyreactivity (PSR sort gate): high polyreactivity

QVQLVESGGGLVQAGGSLSLSCAASGSIFAQYAMGWYRQAPGKERELVATISSVGSTNYADSVKGRFTISRANAKNTVYLQMNSLKPEDTAVYYCAADYRHDTFSNEYDYWGQGTQVTVSS
polyreactivity (PSR sort gate): low polyreactivity

QVQLVESGGGLVQAGGSLRLSCAASGIIFVKYVMGWYRQAPGKERELVAAITGTGRTNYADSVKGRFTISRDNAKNTVYLQMNSLKPEDTAVYYCNARQAGTRYKYGYYGRYYWGQGTQVSVSS
polyreactivity (PSR sort gate): high polyreactivity

QVQLVESGEGLVQAGGSLRLSCAASGRIFAWYAMGWYRQAPGKERELVAAIDRGDNTYYADSVKGRFTISRDNAKNTGYLQMNSLKPEDTAVYYGFYYGAHEPYGYWGQGTQVTVSS
polyreactivity (PSR sort gate): low polyreactivity

QVQLVESGGGLVQAGGSLRLSCAASGSTVYAYAMGWYRQAPGKERELVAAIDSGGSTYYADSVKGRFTISRDNAKNTVNLQMNSLKPEDTAVYYCAVRHRYTRAYWGRDYWGQGTQVTVSS
polyreactivity (PSR sort gate): low polyreactivity
